From patent US20250283037A1 (JUNO THERAPEUTICS, published 2025)

Key:
[1] = biological target: T1, CD4 on the surface of human T cells (human, UniProt P01730 26-458); assay: affinity column selection of cells from apheresis by the CD4 marker
T1 construct: whole, on cells; also called selection marker CD4

[2] = biological target: T2, Strep-tactin M2 (streptavidin mutein) immobilised on the chromatography resin (Streptomyces avidinii, UniProt P22629 38-163); assay: loading of the tagged Fab on Strep-tactin Sephadex G50, 20 min at 4 C
T2 construct: also called immobilized Strep-tactin; STREP-TACTIN-coated resin

binding result [1]: binds
binding result [2]: binds
B1: anti-CD4 Fab fragment m13B8.2 with Twin Strep-Tag (Fab, V domains shown)
VH: QVQLKQSGPGLVQPSQSLSITCTVSGFSLTTFGVHWVRQSPGKGLEWLGVIWASGITDYNVPFMSRLSITKDNSKSQVFFKLNSLQPDDTAIYYCAKNDPGTGFAYWGQGTLVTVSA
VL: DIQMTQSPASLSASVGETVTFTCRASEMIYSYLAWYQQKQGKSPQLLVHDAKTLAEGVPSRFSGGGSGTQFSLKINTLQPEDFGTYYCQAHYGNPPTFGGGTKLEIKR
